This note sets out measurements from patent publication US20130058934A1 (Novartis, published 2013).

The target of experiment [1] is T1, human FcRn (human, UniProt P55899 24-297; P61769 21-119, limits assumed). In words: Biacore, pH 6.0; human FcRn at pH 6.0, Biacore; parental IgG, not IgG-scFv.
The target of another experiment is T2, cynoFcRn (cynomolgus monkey, UniProt Q8SPV9).
T2 construct: also called cynomolgus FcRn
Put plainly: Biacore, cynoFcRn at pH 6.0.

A further experiment addresses T3, LRP6 PD1/2 (human, UniProt O75581 19-629).
T3 construct: range 19-629; Recombinant soluble fragment; also called Propeller Domains 1-2 of LRP6; recombinant LRP6 PD1/2
T3 sequence (looked up): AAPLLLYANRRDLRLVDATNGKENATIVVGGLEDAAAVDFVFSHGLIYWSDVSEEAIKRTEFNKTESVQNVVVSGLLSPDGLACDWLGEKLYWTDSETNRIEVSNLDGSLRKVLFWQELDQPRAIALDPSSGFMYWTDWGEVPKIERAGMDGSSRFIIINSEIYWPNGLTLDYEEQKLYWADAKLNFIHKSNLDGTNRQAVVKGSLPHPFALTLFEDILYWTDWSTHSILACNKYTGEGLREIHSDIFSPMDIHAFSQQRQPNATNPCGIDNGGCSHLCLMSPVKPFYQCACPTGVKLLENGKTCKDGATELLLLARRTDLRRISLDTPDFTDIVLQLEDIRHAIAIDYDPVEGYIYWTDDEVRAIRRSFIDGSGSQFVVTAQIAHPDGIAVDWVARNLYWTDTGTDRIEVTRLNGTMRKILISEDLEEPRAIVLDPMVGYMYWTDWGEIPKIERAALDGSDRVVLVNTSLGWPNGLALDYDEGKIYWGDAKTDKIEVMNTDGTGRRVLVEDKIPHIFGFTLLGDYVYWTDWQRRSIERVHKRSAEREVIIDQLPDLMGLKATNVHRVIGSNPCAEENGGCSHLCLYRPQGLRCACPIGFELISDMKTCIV
In words: Biacore T-100 SPR, antibody captured by anti-human IgG Fc on a CM4 chip, PD1/2 injected; N = 4. As to the method:
(§1) The carboxymethyl dextran surface was activated with a 7 min injection of a 1:1 ratio of 0.4 M EDC (1-Ethyl-3-[3-dimethylaminopropyl]carbodiimide hydrochloride) and 0.1 M NHS(N-hydroxysuccinimide). […] PD1/2 and PD3/4 were prepared as two fold concentration series starting at 50 nM, and injected at 30 μl/min for 1 min. […] The surfaces were then regenerated two times with 10 mM glycine (pH 2.2). […] PD3/4 at a saturating concentration of 100 nM was then flowed over the surface at a flow rate of 30 μl/min for 30 min. A saturating concentration of 100 nM PD1/2 was injected immediately after the PD3/4. The dissociation constant (KD), association (kₒₙ), and dissociation (koff) rates were calculated from the baseline subtracted corrected binding curves using the BIAevaluation software (GE Healthcare).

The target in experiment [2] is T1, human FcRn. Put plainly: Biacore, pH 6.0; human FcRn at pH 6.0, Biacore; IgG-scFv format (only low level binding at pH 7.4).
Another experiment addresses T4, LRP6 PD3/4 (human, UniProt O75581 631-1246).
T4 construct: range 631-1246; Recombinant soluble fragment; also called Propeller Domains 3-4 of LRP6; recombinant LRP6 PD3/4
T4 sequence (looked up): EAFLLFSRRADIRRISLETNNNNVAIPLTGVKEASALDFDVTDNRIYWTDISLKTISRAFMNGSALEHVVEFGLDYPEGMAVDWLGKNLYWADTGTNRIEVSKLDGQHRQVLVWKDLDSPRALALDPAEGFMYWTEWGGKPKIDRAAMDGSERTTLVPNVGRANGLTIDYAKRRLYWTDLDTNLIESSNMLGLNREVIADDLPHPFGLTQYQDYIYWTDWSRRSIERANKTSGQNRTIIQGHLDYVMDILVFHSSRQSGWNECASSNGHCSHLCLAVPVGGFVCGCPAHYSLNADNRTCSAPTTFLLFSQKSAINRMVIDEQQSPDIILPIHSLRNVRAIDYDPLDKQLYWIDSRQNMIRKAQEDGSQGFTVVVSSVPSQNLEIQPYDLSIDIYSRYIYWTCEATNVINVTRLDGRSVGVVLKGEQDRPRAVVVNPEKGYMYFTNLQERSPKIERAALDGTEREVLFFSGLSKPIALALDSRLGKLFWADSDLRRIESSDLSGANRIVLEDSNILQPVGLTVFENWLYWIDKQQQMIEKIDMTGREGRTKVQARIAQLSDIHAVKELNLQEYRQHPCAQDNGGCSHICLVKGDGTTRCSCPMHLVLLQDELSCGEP
In words: Biacore T-100 SPR, antibody captured by anti-human IgG Fc on a CM4 chip, PD3/4 injected; N = 3. As to the method: as §1

T1 sequence (P55899 24-297 limits assumed, form in doubt, chain 1 of 2): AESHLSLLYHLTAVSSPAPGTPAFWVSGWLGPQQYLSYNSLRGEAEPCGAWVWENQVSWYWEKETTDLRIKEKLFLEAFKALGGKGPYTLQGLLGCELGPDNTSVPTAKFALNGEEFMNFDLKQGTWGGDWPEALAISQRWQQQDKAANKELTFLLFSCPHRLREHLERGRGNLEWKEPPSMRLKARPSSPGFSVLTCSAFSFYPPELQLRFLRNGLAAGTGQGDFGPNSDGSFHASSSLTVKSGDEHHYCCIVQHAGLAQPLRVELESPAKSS
T1 sequence (P61769 21-119 limits assumed, form in doubt, chain 2 of 2): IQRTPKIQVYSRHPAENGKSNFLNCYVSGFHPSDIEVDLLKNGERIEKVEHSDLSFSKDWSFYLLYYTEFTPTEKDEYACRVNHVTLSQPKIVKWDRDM

B1: MOR08168 hIgG1LALA (antibody)
heavy: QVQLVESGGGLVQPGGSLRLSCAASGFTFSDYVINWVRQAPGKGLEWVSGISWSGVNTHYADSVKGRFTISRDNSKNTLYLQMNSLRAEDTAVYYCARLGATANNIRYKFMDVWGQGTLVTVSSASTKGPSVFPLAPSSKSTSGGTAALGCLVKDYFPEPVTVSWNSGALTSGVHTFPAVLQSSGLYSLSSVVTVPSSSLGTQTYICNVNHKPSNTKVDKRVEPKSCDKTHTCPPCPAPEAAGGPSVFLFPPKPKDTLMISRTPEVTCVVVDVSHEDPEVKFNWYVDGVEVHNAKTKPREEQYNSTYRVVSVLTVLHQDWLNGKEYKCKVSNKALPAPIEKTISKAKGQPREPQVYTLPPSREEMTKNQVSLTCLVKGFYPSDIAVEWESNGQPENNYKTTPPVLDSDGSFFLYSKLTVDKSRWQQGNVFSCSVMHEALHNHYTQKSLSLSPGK
light: DIELTQPPSVSVAPGQTARISCSGDSLRNKVYWYQQKPGQAPVLVIYKNNRPSGIPERFSGSNSGNTATLTISGTQAEDEADYYCQSYDGQKSLVFGGGTKLTVLGQPKAAPSVTLFPPSSEELQANKATLVCLISDFYPGAVTVAWKADSSPVKAGVETTTPSKQSNNKYAASSYLSLTPEQWKSHRSYSCQVTHEGSTVEKTVAPTECS
notes: Human IgG1 LALA / lambda; also called Propeller 1 IgG (MOR08168); MOR08168 (propeller 1 antibody)
As for B1, the results for the dissociation constant Kd in the experiment with human FcRn [1], in the experiment with cynoFcRn and in the experiment with LRP6 PD1/2 were 23 nM, 280 nM and 1.08 nM, respectively. Besides, in the experiment with LRP6 PD1/2, the koff worked out at 9.05e-05 s⁻¹. In addition, in the experiment with LRP6 PD1/2, the on-rate constant (kon) stood at 87200 M⁻¹ s⁻¹.

B2: anti-LRP6 MOR08168hIgG1LALA 6475 scfv (bispecific antibody)
heavy: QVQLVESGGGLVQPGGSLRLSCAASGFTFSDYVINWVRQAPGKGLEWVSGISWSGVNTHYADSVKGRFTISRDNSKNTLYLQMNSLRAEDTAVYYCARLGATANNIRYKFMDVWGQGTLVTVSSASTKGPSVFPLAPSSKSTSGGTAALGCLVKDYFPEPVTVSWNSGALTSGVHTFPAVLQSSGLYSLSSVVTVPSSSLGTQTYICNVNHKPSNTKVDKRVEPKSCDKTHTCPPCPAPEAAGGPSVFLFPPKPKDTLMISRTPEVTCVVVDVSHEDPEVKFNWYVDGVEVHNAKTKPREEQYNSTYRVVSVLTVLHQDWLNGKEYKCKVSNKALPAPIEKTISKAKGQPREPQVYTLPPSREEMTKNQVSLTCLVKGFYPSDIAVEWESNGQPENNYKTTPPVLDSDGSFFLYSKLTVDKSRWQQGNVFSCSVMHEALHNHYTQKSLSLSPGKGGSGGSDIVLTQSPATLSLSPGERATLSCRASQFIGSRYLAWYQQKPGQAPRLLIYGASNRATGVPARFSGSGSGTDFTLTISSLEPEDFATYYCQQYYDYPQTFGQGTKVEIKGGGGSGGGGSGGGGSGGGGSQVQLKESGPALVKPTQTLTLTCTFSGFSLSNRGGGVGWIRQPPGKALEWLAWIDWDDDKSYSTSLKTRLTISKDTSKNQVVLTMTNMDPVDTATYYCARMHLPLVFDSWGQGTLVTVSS
light: DIELTQPPSVSVAPGQTARISCSGDSLRNKVYWYQQKPGQAPVLVIYKNNRPSGIPERFSGSNSGNTATLTISGTQAEDEADYYCQSYDGQKSLVFGGGTKLTVLGQPKAAPSVTLFPPSSEELQANKATLVCLISDFYPGAVTVAWKADSSPVKAGVETTTPSKQSNNKYAASSYLSLTPEQWKSHRSYSCQVTHEGSTVEKTVAPTECS
notes: Biparatopic: MOR08168 IgG1 LALA with MOR06475 scFv (VL-(Gly4Ser)4-VH) fused by a (GlyGlySer)2 linker to the C-terminus of CH3; also called Biparatopic anti-LRP6 IgG scFv
With B2, the equilibrium dissociation constant (Kd) with human FcRn [2] is 21 nM. In the experiment with LRP6 PD3/4, this molecule gave a Kd of 1.93 nM, a dissociation rate constant (koff) of 0.000314 s⁻¹ and a kon of 211000 M⁻¹ s⁻¹. In the experiment with cynoFcRn, this molecule returned a dissociation constant Kd of 120 nM.
